Measurements: article PMC6615493, “The Role of Iron and Copper on the Oligomerization Dynamics of DR_2577, the Main S-Layer Protein of Deinococcus radiodurans” (Frontiers in Microbiology, 2019)
Several values for one entry are separate records, joined by “and”; a condition that tells them apart may be missing. Equal values may be shown once.

Target: the molecule itself
Assay: SEC; Superose 6 10/300GL, 50 µl protein at 0.2 mg/ml, 0.05% β-DDM; 50 mM phosphate (pH >= 7) or 50 mM Na acetate (pH <= 6); control runs, runs with EDTA, at lower pH and with Cu2+; close-to-native conditions

B1: DR_2577, the main S-layer protein of Deinococcus radiodurans (natural protein, UniProt Q9RRB6 23-1167, looked up)
chain: APVSAPQVPALTDVPAGHWAKDAIDRLVSRGVILGYPDGTFRGTQNLTRYEAAIIIARLLDQMRDGETPAGMTAEDMTALQNAIQELAADLAALGVRVSDLEANAVSKDDFARLEARIEEVAAAGGEQGATEALQGQIDDLTARVDEYDALRADVDDNASSIAALNDLTVLLNQDILDLQDRVSAVEAAQADFVQRSDFDALGGRVTTVETRVETVNNSLTGRIAALERNAFSVKPSLTIGYSVSRTSRNFDVDRLFPLNADGTVANNAFTSGGIDTDTGAQRRDFGDFGNASDPVVAGAAGLYGFADGVSYTVYFTDGSTATFDGLNPADYKVPTGKVIDTTKGRNGFGFNNLARYKEGSTDIGISLGFDTSGQFSQVTSGTGGSLFSTAGRLQVNQIDLNFGLVTGLPSDAYVDTNGNGKKDDGEATGRGTYLGSGGTAAILRDPAGNVYRPVFFRFKNATTQFSVGNNPVIVTLGQQQKFYFSDYVFDNNYDGRGDGFTVTVDGSNVPVIGAWKPQIKGVYGSRSGLDGTAEAGYGVYYRGVRAQITPVGTLTAGIHYAQEGRDMFGAAQNTTSTPSDVTTYGADLHGKAFGVELHSEYATSRVRPNTANAAVQTSNAFYARVATRKDNLAFDLNTPAAKFGNDTFGVSLYDLNYRKIDAGYNNVAGISEYGYGSYSRTSAQNIAYNPDTGVTAPFANLDRQAYTDANNDGTSDRNADGTVVATNTKIGQMGFGVKAAANLGPVAIGGYYDTSTGANGDNANRMTEAGGSAKVAYSIFSLRGTYNTLDSNRPQIYRDAAGTQIIGDAKVRRYAVQADVTPGLGLFVGAYYRDVNVNGVRSTTDRGLLGRGYLASSFEPGVGNNAYRTGLRCADNNFGTGTRDIDGVGGVLNPAVNLDQSRTATCFTSYGVEAGHAGDNANALVKDLFFRVGYSRVYVPTTATATTGDFSGSVTYGDARYDRKVGVANVRLAGSFSTTNTQLDSRPAGTRGAVGLIVRTDPLENVPFRPQFNGQVGYYTADNRVAAGNYNANATKYGAGVVLNDFLLPQTKIGVRYDGYMAQNRQYTPFDGDGTQGYFSDANNNRRTNLNGVYVEGAYQDLIFSYGTYTLSQKDLNGVEYGSGINNGQPARGQTFKISYKVNF
notes: DR_2577 (SlpA), main S-layer protein of Deinococcus radiodurans strain R1; The introduction describes it as a homo-hexamer of ~760 kDa (trimer of dimers); the dimers are said (cited work) to be held by intermolecular disulfide bonds; also called SlpA
  stoichiometry N: 6 and 2
